# Data as given in PMC8552062, “Contributions of UDP-Glucuronosyltransferases to Human Hepatic and Intestinal Metabolism of Ticagrelor and Inhibition of UGTs and Cytochrome P450 Enzymes by Ticagrelor and its Glucuronidated Metabolite” (Frontiers in Pharmacology, 2021).
# B1: recombinant human UGT1A4 (Homo sapiens) (protein)
# chain: GKVLVVPTDGSPWLSMREALRELHARGHQAVVLTPEVNMHIKEEKFFTLTAYAVPWTQKEFDRVTLGYTQGFFETEHLLKRYSRSMAIMNNVSLALHRCCVELLHNEALIRHLNATSFDVVLTDPVNLCGAVLAKYLSIPAVFFWRYIPCDLDFKGTQCPNPSSYIPKLLTTNSDHMTFLQRVKNMLYPLALSYICHTFSAPYASLASELFQREVSVVDLVSYASVWLFRGDFVMDYPRPIMPNMVFIGGINCANGKPLSQEFEAYINASGEHGIVVFSLGSMVSEIPEKKAMAIADALGKIPQTVLWRYTGTRPSNLANNTILVKWLPQNDLLGHPMTRAFITHAGSHGVYESICNGVPMVMMPLFGDQMDNAKRMETKGAGVTLNVLEMTSEDLENALKAVINDKSYKENIMRLSSLHKDRPVEPLDLAVFWVEFVMRHKGAPHLRPAAHDLTWYQYHSLDVIGFLLAVVLTVAFITFKCCAYGYRKCLGKKGRVKKAHKSKTH
# notes: purchased BD Gentest; host or cells: baculovirus-infected insect cells
# Substrate: CCCSc1nc(N[C@@H]2C[C@H]2c2ccc(F)c(F)c2)c2nnn([C@@H]3C[C@H](OCCO)[C@@H](O)[C@H]3O)c2n1
# Assay: Ticagrelor glucuronidation by recombinant human UGT1A4
# Format: in vitro ADME
# Settings: other: recombinant UGT1A4, Michaelis-Menten kinetics; pH 7.4; 37.0 °C
# Description: Ticagrelor glucuronidation was investigated in an in vitro incubation system by using HLM, HIM, and recombinant human UGTs. The incubation system consisted of enzyme sources (HLM, HIM, or human recombinant UGTs), various concentrations of ticagrelor (dissolved in 50% methanol, 1% v/v, 1, 2, 5, 10, 20, 50, 100, 200, 500 μM of final concentration), alamethicin (50 μg/mg protein), 5 mM MgCl2, 100 mM tris-HCL buffer (pH 7.4), and 5 mM UDPGA in a total volume of 100 μl. Alamethicin is a pore-forming polypeptide used to activate UGTs in HLM and HIM ([Fisher et al., 2000]). Preliminary studies were conducted to determine the optimal protein concentrations and incubation times. Linear conditions of ticagrelor-O-Glu formation from ticagrelor, i.e., HLM, 0.2 mg of protein/ml and 60 min, HIM, 0.2 mg of protein/ml and 60 min, and recombinant human UGTs, 0.2 mg of protein/ml and 60 min were selected. The incubation mixture without UDPGA was placed on ice for 15 min to activate UGT by alamethicin. After pre-incubation for 5 min at 37°C, the reactions were started by the addition of UDPGA. After another 60 min of incubation at 37°C, the reaction was terminated by adding 100 μl of acetonitrile containing internal standard (diazepam). The mixture vortexed for 2 min and then centrifuged at 14,000 rpm for 10 min at 4°C. The resulting supernatant was injected into a liquid chromatography tandem mass spectrometry (LC-MS/MS, Applied Biosystems/MDS Sciex, Foster City, CA) system for the detection of ticagrelor-O-Glu.
# Kinetic analyses were performed using the mean values of triplicate determinations with either pooled HLM, HIM, or recombinant human UGTs. All data were analyzed by nonlinear regression analysis using the GraphPad Prism 6 (GraphPad Software Inc., CA, United States). Michaelis-Menten kinetics (Eq. 1) or substrate inhibition kinetics (Eq. 2) ([Houston and Kenworthy, 2000]) were tested to determine the optimal model for describing the data. […] Intrinsic clearance (CLint) was calculated by dividing Vmax by Km.
protein,measurement,value
B1,Km,10.28 µM
same,Vmax,3.6e-07 µmol/min/mg
same,Vmax/Km,0.04 µL/min/mg
